The chains are these.
B1: Four and a half LIM domains protein 2 (Homo sapiens), Q14192 (parent)
chain: MTERFDCHHCNESLFGKKYILREESPYCVVCFETLFANTCEECGKPIGCDCKDLSYKDRHWHEACFHCSQCRNSLVDKPFAAKEDQLLCTDCYSNEYSSKCQECKKTIMPGTRKMEYKGSSWHETCFICHRCQQPIGTKSFIPKDNQNFCVPCYEKQHAMQCVQCKKPITTGGVTYREQPWHKECFVCTACRKQLSGQRFTARDDFAYCLNCFCDLYAKKCAGCTNPISGLGGTKYISFEERQWHNDCFNCKKCSLSLVGRGFLTERDDILCPDCGKDI
partner: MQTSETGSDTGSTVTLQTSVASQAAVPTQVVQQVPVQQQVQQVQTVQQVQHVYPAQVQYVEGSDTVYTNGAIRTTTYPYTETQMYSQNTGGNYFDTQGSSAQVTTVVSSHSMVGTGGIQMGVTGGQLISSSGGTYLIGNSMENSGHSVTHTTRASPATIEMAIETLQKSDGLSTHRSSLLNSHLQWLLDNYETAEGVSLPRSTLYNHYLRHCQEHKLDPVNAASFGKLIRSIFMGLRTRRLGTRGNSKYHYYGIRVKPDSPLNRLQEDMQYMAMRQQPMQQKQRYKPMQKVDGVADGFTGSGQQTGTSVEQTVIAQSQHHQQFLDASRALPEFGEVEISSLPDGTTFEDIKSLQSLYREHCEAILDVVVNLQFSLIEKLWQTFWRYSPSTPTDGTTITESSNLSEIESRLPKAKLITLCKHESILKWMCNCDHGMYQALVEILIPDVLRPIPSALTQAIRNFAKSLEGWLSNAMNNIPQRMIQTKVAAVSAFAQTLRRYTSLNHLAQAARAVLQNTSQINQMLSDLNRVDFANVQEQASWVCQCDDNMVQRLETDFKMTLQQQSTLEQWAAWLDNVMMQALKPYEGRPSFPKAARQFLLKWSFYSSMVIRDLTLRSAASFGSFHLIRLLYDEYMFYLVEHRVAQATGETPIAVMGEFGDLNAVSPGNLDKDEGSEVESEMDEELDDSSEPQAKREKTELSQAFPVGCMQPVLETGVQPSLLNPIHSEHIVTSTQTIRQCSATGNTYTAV
B2: Proton-coupled zinc antiporter SLC30A2 (Homo sapiens), Q9BRI3 (parent)
chain: MEAKEKQHLLDARPAIRSYTGSLWQEGAGWIPLPRPGLDLQAIELAAQSNHHCHAQKGPDSHCDPKKGKAQRQLYVASAICLLFMIGEVVGGYLAHSLAVMTDAAHLLTDFASMLISLFSLWMSSRPATKTMNFGWQRAEILGALVSVLSIWVVTGVLVYLAVERLISGDYEIDGGTMLITSGCAVAVNIIMGLTLHQSGHGHSHGTTNQQEENPSVRAAFIHVIGDFMQSMGVLVAAYILYFKPEYKYVDPICTFVFSILVLGTTLTILRDVILVLMEGTPKGVDFTAVRDLLLSVEGVEALHSLHIWALTVAQPVLSVHIAIAQNTDAQAVLKTASSRLQGKFHFHTVTIQIEDYSEDMKDCQACQGPSD
B3: Coiled-coil domain-containing protein 92 (Homo sapiens), Q53HC0 (parent)
chain: MTSPHFSSYDEGPLDVSMAATNLENQLHSAQKNLLFLQREHASTLKGLHSEIRRLQQHCTDLTYELTVKSSEQTGDGTSKSSELKKRCEELEAQLKVKENENAELLKELEQKNAMITVLENTIKEREKKYLEELKAKSHKLTLLSSELEQRASTIAYLTSQLHAAKKKLMSSSGTSDASPSGSPVLASYKPAPPKDKLPETPRRRMKKSLSAPLHPEFEEVYRFGAESRKLLLREPVDAMPDPTPFLLARESAEVHLIKERPLVIPPIASDRSGEQHSPAREKPHKAHVGVAHRIHHATPPQAQPEVKTLAVDQVNGGKVVRKHSGTDRTV
partner: B1 chain
B4: RUN and FYVE domain-containing protein 1 (Homo sapiens), Q96T51-2 (parent)
chain: MMEERANLMHMMKLSIKVLLQSALSLGRSLDADHAPLQQFFVVMEHCLKHGLKVKKSFIGQNKSFFGPLELVEKLCPEASDIATSVRNLPELKTAVGRGRAWLYLALMQKKLADYLKVLIDNKHLLSEFYEPEALMMEEEGMVIVGLLVGLNVLDANLCLKGEDLDSQVGVIDFSLYLKDVQDLDGGKEHERITDVLDQKNYVEELNRHLSCTVGDLQTKIDGLEKTNSKLQEELSAATDRICSLQEEQQQLREQNELIRERSEKSVEITKQDTKVELETYKQTRQGLDEMYSDVWKQLKEEKKVRLELEKELELQIGMKTEMEIAMKLLEKDTHEKQDTLVALRQQLEEVKAINLQMFHKAQNAESSLQQKNEAITSFEGKTNQVMSSMKQMEERLQHSERARQGAEERSHKLQQELGGRIGALQLQLSQLHEQCSSLEKELKSEKEQRQALQRELQHEKDTSSLLRMELQQVEGLKKELRELQDEKAELQKICEEQEQALQEMGLHLSQSKLKMEDIKEVNQALKGHAWLKDDEATHCRQCEKEFSISRRKHHCRNCGHIFCNTCSSNELALPSYPKPVRVCDSCHTLLLQRCSSTAS
partner: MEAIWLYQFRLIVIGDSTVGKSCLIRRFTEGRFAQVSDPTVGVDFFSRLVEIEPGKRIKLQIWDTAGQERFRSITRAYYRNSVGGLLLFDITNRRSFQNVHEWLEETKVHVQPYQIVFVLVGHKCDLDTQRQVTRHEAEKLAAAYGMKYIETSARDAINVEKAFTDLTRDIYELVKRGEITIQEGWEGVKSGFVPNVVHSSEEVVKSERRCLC
B5: Zinc finger protein Aiolos (Homo sapiens), Q9UKT9 (parent)
chain: MEDIQTNAELKSTQEQSVPAESAAVLNDYSLTKSHEMENVDSGEGPANEDEDIGDDSMKVKDEYSERDENVLKSEPMGNAEEPEIPYSYSREYNEYENIKLERHVVSFDSSRPTSGKMNCDVCGLSCISFNVLMVHKRSHTGERPFQCNQCGASFTQKGNLLRHIKLHTGEKPFKCHLCNYACQRRDALTGHLRTHSVEKPYKCEFCGRSYKQRSSLEEHKERCRTFLQSTDPGDTASAEARHIKAEMGSERALVLDRLASNVAKRKSSMPQKFIGEKRHCFDVNYNSSYMYEKESELIQTRMMDQAINNAISYLGAEALRPLVQTPPAPTSEMVPVISSMYPIALTRAEMSNGAPQELEKKSIHLPEKSVPSERGLSPNNSGHDSTDTDSNHEERQNHIYQQNHMVLSRARNGMPLLKEVPRSYELLKPPPICPRDSVKVINKEGEVMDVYRCDHCRVLFLDYVMFTIHMGCHGFRDPFECNMCGYRSHDRYEFSSHIARGEHRALLK
partner: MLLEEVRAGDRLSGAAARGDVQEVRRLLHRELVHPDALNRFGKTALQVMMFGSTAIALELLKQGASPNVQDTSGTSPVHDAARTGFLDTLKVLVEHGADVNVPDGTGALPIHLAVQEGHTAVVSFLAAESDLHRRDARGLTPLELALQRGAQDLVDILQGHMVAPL
B6: Notch homolog 2 N-terminal-like protein A (Homo sapiens), Q7Z3S9 (parent)
chain: MCVTYHNGTGYCKCPEGFLGEYCQHRDPCEKNRCQNGGTCVAQAMLGKATCRCASGFTGEDCQYSTSHPCFVSRPCLNGGTCHMLSRDTYECTCQVGFTGKECQWTDACLSHPCANGSTCTTVANQFSCKCLTGFTGQKCETDVNECDIPGHCQHGGTCLNLPGSYQCQCLQGFTGQYCDSLYVPCAPSPCVNGGTCRQTGDFTFECNCLPETVRRGTELWERDREVWNGKEHDEN
partner: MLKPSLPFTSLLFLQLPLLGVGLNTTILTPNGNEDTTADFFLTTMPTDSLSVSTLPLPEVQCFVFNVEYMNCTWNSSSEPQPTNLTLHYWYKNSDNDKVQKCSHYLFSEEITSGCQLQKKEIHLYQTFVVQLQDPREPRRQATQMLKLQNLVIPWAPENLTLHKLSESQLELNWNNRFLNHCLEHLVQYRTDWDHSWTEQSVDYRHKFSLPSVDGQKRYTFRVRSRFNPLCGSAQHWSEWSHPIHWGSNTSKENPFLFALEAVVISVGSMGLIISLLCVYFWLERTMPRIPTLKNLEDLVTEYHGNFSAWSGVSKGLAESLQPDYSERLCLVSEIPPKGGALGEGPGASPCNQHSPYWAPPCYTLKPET

Variants of B1 are the subject of one assay. Particulars: with rfx3_human RFX3, P48380.
Turning to N95K, the “effect of a mutation on the interaction” value is reported as “with no effect”.
As for A37S, the “effect of a mutation on the interaction” value is reported as “with no effect”.

Another assay covers variants of B2. The conditions noted are these: with tnr12_human TNFRSF12A.
With T181M, the “effect of a mutation on the interaction” value was “with no effect”.

In a further assay the parent is B2. Particulars: with ada33_human ADAM33, Q9BZ11.
ada33_human ADAM33, Q9BZ11, sequence (Q9BZ11 whole entry): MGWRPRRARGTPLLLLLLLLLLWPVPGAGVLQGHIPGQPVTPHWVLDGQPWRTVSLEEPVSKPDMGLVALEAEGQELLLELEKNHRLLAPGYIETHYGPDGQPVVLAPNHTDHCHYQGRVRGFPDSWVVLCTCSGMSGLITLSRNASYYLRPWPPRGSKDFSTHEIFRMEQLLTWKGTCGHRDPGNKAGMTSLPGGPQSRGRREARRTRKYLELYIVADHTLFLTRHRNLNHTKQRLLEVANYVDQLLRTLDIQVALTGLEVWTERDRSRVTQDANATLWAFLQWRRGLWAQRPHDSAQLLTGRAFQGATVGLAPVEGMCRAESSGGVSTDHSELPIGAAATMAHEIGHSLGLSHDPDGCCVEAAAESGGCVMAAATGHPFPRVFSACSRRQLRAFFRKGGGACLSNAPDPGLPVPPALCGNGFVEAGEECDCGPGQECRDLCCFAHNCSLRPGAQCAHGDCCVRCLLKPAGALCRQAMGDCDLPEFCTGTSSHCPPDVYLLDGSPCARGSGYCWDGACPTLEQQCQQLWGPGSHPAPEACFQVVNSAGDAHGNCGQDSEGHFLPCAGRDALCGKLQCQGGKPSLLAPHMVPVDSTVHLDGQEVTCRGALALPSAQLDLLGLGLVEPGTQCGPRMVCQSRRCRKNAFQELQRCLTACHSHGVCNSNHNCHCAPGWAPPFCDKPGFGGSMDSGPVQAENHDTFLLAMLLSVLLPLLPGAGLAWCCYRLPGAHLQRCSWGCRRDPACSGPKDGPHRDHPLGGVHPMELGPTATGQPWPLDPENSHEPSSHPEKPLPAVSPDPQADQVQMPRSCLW
For T181M, the “effect of a mutation on the interaction” value is “with no effect”.

Variants of B2 are the subject of the next assay. The conditions noted are these: with ccl4_human CCL4, P13236.
ccl4_human CCL4, P13236, sequence (P13236 whole entry): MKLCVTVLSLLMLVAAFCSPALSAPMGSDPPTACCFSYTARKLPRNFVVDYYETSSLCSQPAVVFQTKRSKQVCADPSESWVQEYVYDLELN
On to T181M, for which the “effect of a mutation on the interaction” value was “with no effect”.

The next assay covers variants of B3. Particulars: with fhl2_human FHL2, Q14192.
For S70C, the “effect of a mutation on the interaction” value is recorded as “with no effect”.

Variants of B4 are the subject of the next assay. Particulars: with rb39b_human RAB39B.
As for C159F, the “effect of a mutation on the interaction” value is recorded as “with no effect”.

In another assay the parent is B5. The conditions noted are these: with cdn2d_human CDKN2D.
For the variant A24V, the “effect of a mutation on the interaction” value is “with no effect”.
On to N119D, for which the “effect of a mutation on the interaction” value was “with no effect”.

Variants of B5 are the subject of another assay. Particulars: with cdn2d_human CDKN2D. This is another data set of the same source.
Take I338M: the “effect of a mutation on the interaction” value was “with no effect”.

In a further assay the parent is B6. The conditions noted are these: with il2rg_human IL2RG.
On to R74Q, for which the “effect of a mutation on the interaction” value was “with no effect”.
Regarding A115T, the “effect of a mutation on the interaction” value is “with no effect”.

For the origin of these results see IntAct's records for PubMed 31515488.
